Measurements from PMC8276798, “High-Level Production of Lysine in the Yeast Saccharomyces cerevisiae by Rational Design of Homocitrate Synthase” (Applied and Environmental Microbiology, 2021).

T1: homocitrate synthase ScLys20 (wild type) (Saccharomyces cerevisiae, UniProt P48570)
T1 construct: gene LYS20; N-terminal His-tagged recombinant ScLys20
T1 sequence (P48570 1-428): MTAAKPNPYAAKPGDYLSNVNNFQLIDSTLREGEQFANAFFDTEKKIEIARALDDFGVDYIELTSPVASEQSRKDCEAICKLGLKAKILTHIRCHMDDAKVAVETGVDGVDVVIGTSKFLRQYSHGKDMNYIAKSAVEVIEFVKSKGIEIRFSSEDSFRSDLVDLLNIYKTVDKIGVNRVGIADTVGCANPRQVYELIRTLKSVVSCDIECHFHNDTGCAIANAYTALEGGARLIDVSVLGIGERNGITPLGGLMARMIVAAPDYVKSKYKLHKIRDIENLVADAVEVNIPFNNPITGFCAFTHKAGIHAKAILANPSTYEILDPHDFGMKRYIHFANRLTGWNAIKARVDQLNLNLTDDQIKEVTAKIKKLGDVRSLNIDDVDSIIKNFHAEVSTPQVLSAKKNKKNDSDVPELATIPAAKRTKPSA

T2: homocitrate synthase ScLys20 S385F variant (Saccharomyces cerevisiae, UniProt P48570, S385F)
T2 construct: gene LYS20; N-terminal His-tagged recombinant ScLys20
T2 sequence (P48570 1-428 S385F): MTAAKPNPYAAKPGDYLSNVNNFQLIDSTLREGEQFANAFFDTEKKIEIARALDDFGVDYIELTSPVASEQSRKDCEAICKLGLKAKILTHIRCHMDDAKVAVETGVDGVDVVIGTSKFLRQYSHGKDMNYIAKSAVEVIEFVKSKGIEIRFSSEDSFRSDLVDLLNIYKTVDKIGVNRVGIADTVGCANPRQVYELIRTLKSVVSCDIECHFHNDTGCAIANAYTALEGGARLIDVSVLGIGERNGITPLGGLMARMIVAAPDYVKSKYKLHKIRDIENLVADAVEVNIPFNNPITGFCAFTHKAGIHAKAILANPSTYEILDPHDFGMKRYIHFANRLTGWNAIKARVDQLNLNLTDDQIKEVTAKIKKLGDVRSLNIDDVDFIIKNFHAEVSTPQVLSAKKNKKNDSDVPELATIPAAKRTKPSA

T3: homocitrate synthase ScLys20 S385E variant (Saccharomyces cerevisiae, UniProt P48570, S385E)
T3 construct: gene LYS20; N-terminal His-tagged recombinant ScLys20
T3 sequence (P48570 1-428 S385E): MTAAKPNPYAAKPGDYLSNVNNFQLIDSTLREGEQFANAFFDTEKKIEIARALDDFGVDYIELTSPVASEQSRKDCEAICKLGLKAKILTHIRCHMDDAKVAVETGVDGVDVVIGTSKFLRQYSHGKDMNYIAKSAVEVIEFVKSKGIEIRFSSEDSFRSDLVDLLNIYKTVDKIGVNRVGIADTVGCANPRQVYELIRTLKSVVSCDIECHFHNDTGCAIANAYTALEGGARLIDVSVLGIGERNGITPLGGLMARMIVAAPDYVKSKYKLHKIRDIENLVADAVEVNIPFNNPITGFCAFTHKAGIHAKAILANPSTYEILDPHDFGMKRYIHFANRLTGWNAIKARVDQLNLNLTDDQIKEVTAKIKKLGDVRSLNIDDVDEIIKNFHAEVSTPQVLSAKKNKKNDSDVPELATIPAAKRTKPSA

B1: homocitrate synthase ScLys20 (wild type) (Saccharomyces cerevisiae S288C) (protein)
chain: MTAAKPNPYAAKPGDYLSNVNNFQLIDSTLREGEQFANAFFDTEKKIEIARALDDFGVDYIELTSPVASEQSRKDCEAICKLGLKAKILTHIRCHMDDAKVAVETGVDGVDVVIGTSKFLRQYSHGKDMNYIAKSAVEVIEFVKSKGIEIRFSSEDSFRSDLVDLLNIYKTVDKIGVNRVGIADTVGCANPRQVYELIRTLKSVVSCDIECHFHNDTGCAIANAYTALEGGARLIDVSVLGIGERNGITPLGGLMARMIVAAPDYVKSKYKLHKIRDIENLVADAVEVNIPFNNPITGFCAFTHKAGIHAKAILANPSTYEILDPHDFGMKRYIHFANRLTGWNAIKARVDQLNLNLTDDQIKEVTAKIKKLGDVRSLNIDDVDSIIKNFHAEVSTPQVLSAKKNKKNDSDVPELATIPAAKRTKPSA
notes: N-terminal His-tagged recombinant ScLys20
B2: homocitrate synthase ScLys20 S385F variant (Saccharomyces cerevisiae S288C; S385F) (protein)
chain: MTAAKPNPYAAKPGDYLSNVNNFQLIDSTLREGEQFANAFFDTEKKIEIARALDDFGVDYIELTSPVASEQSRKDCEAICKLGLKAKILTHIRCHMDDAKVAVETGVDGVDVVIGTSKFLRQYSHGKDMNYIAKSAVEVIEFVKSKGIEIRFSSEDSFRSDLVDLLNIYKTVDKIGVNRVGIADTVGCANPRQVYELIRTLKSVVSCDIECHFHNDTGCAIANAYTALEGGARLIDVSVLGIGERNGITPLGGLMARMIVAAPDYVKSKYKLHKIRDIENLVADAVEVNIPFNNPITGFCAFTHKAGIHAKAILANPSTYEILDPHDFGMKRYIHFANRLTGWNAIKARVDQLNLNLTDDQIKEVTAKIKKLGDVRSLNIDDVDFIIKNFHAEVSTPQVLSAKKNKKNDSDVPELATIPAAKRTKPSA
notes: as for B1
B3: homocitrate synthase ScLys20 S385L variant (Saccharomyces cerevisiae S288C; S385L) (protein)
chain: MTAAKPNPYAAKPGDYLSNVNNFQLIDSTLREGEQFANAFFDTEKKIEIARALDDFGVDYIELTSPVASEQSRKDCEAICKLGLKAKILTHIRCHMDDAKVAVETGVDGVDVVIGTSKFLRQYSHGKDMNYIAKSAVEVIEFVKSKGIEIRFSSEDSFRSDLVDLLNIYKTVDKIGVNRVGIADTVGCANPRQVYELIRTLKSVVSCDIECHFHNDTGCAIANAYTALEGGARLIDVSVLGIGERNGITPLGGLMARMIVAAPDYVKSKYKLHKIRDIENLVADAVEVNIPFNNPITGFCAFTHKAGIHAKAILANPSTYEILDPHDFGMKRYIHFANRLTGWNAIKARVDQLNLNLTDDQIKEVTAKIKKLGDVRSLNIDDVDLIIKNFHAEVSTPQVLSAKKNKKNDSDVPELATIPAAKRTKPSA
B4: homocitrate synthase ScLys20 S385E variant (Saccharomyces cerevisiae S288C; S385E) (protein)
chain: MTAAKPNPYAAKPGDYLSNVNNFQLIDSTLREGEQFANAFFDTEKKIEIARALDDFGVDYIELTSPVASEQSRKDCEAICKLGLKAKILTHIRCHMDDAKVAVETGVDGVDVVIGTSKFLRQYSHGKDMNYIAKSAVEVIEFVKSKGIEIRFSSEDSFRSDLVDLLNIYKTVDKIGVNRVGIADTVGCANPRQVYELIRTLKSVVSCDIECHFHNDTGCAIANAYTALEGGARLIDVSVLGIGERNGITPLGGLMARMIVAAPDYVKSKYKLHKIRDIENLVADAVEVNIPFNNPITGFCAFTHKAGIHAKAILANPSTYEILDPHDFGMKRYIHFANRLTGWNAIKARVDQLNLNLTDDQIKEVTAKIKKLGDVRSLNIDDVDEIIKNFHAEVSTPQVLSAKKNKKNDSDVPELATIPAAKRTKPSA
notes: as for B1

Legend:
[1] = molecular target: T1, homocitrate synthase ScLys20 (wild type); test: DCPIP-coupled HCS activity assay with purified enzyme ([…] 2-OG, […] AcCoA); type: biochemical
[2] = molecular target: T2, homocitrate synthase ScLys20 S385F variant; test: as above; type: biochemical
[3] = molecular target: T3, homocitrate synthase ScLys20 S385E variant; test: as above; type: biochemical
purified protein = substrate: O=C(O)CCC(=O)C(=O)O; test: purified protein; conditions: active center
[4] = substrate: CC(=O)SCCNC(=O)CCNC(=O)[C@H](O)C(C)(C)COP(=O)(O)OP(=O)(O)OC[C@H]1O[C@@H](n2cnc3c(N)ncnc32)[C@H](O)[C@@H]1OP(=O)(O)O; test: steady-state kinetics of purified enzyme, DCPIP assay (apparent Km); type: biochemical, Saccharomyces cerevisiae
[5] = Arg31 interacts with 2-OG (homology model)

Row | Molecule | IC50 [1] [µM] | IC50 [2] [µM] | IC50 [3] [µM] | Km (purified protein; [5]) [µM] | kcat (purified protein; [5]) [s⁻¹] | kcat/Km (purified protein; [5]) [M⁻¹ s⁻¹] | Km [4] [µM] | kcat [4] [s⁻¹] | kcat/Km [4] [M⁻¹ s⁻¹] | Km (purified protein) [µM] | kcat (purified protein) [s⁻¹] | kcat/Km (purified protein) [M⁻¹ s⁻¹]
1 | NCCCC[C@H](N)C(=O)O [lysine] | 1000 ± 140 | 2000 ± 680 | 3200 ± 610 | – | – | – | – | – | – | – | – | –
2 | B1 | – | – | – | 4600 ± 1260 | 0.287 | 62.5 | 24.2 ± 4.21 | 0.269 ± 0.014 | 11100 | – | – | –
3 | B2 | – | – | – | – | – | – | 22.8 ± 4.88 | 0.373 ± 0.023 | 16400 | 1990 ± 450 | 0.483 | 243
4 | B3 | – | – | – | – | – | – | – | – | – | 9500 ± 1990 | 0.436 | 46
5 | B4 | – | – | – | – | – | – | 16.1 ± 1.62 | 0.241 ± 0.0065 | 14900 | 3110 ± 530 | 0.468 | 150
